Drawing on US20080032921A1, this text covers IC50 for four molecules.

Experiment [1] deals with purified HLA DRB1*0401 (human). Description: competitive inhibition of 125I-labeled peptide binding to purified HLA.
Experiment [2] addresses purified HLA DRB1*0301 (human). Described as above.
Experiment [3] addresses purified HLA DRB1*1501 (human). The experiment is described as above.
The target of experiment [4] is purified HLA DRB1*0404 (human). The experiment is described as above.
Experiment [5] addresses purified HLA DRB1*0701 (human). Described as above.
The target of experiment [6] is purified HLA DRB1*0101 (human). The description is as above.
Experiment [7] addresses purified HLA DRB1*0802 (human). Described as above.
Experiment [8] has as its target purified HLA DRB1*1101 (human). The description is as above.
Experiment [9] concerns the target purified HLA DRB4*0101 (human). The description is as above.
Experiment [10] concerns the target purified HLA DRB5*0101 (human). Described as above.
Experiment [11] concerns the target purified HLA DRB1*1302 (human). Described as above.
Experiment [12] deals with purified HLA DRB1*0405 (human). Described as above.
Experiment [13] has as its target HLA-DR DRB1*1101 (human). The experiment in a line: competition with 125I-labelled peptide, purified HLA.
For experiment [14], the target named is HLA-DR DRB1*0901 (human). The experiment is described as above.
Experiment [15] concerns the target HLA-DR DRB4*0101 (human). The experiment is described as above.
Experiment [16] deals with HLA-DR DRB5*0101 (human). The experiment is described as above.
In experiment [17] the target is HLA-DR DRB1*0404 (human). Described as above.
Experiment [18] addresses HLA-DR DRB1*1501 (human). The experiment is described as above.
For experiment [19], the target named is HLA-DR DRB1*0802 (human). The description is as above.
In experiment [20] the target is HLA-DR DRB1*1302 (human). The experiment is described as above.
Experiment [21] deals with HLA-DR DRB1*0405 (human). The description is as above.
Experiment [22] concerns the target HLA-DR DRB1*0701 (human). The description is as above.
Experiment [23] has as its target HLA-DR DRB1*0301 (human). The experiment is described as above.
In experiment [24] the target is HLA-DR DRB1*0101 (human). The description is as above.
Experiment [25] concerns the target HLA-DR DRB1*0401 (human). Described as above.
Experiment [26] deals with HLA-DR DRB1*1101 (human). The experiment in a line: competition with 125I-labelled reference peptide on purified HLA-DR.
Experiment [27] has as its target HLA-DR DRB1*0404 (human). Described as above.
Experiment [28] addresses HLA-DR DRB1*1501 (human). The experiment is described as above.
In experiment [29] the target is HLA-DR DRB1*1302 (human). The description is as above.
Experiment [30] deals with HLA-DR DRB1*0405 (human). Described as above.
Experiment [31] concerns the target HLA-DR DRB1*0701 (human). The experiment is described as above.
Experiment [32] addresses HLA-DR DRB1*0301 (human). Described as above.
Experiment [33] has as its target HLA-DR DRB1*0101 (human). The description is as above.
In experiment [34] the target is HLA-DR DRB1*0401 (human). Described as above.
Experiment [35] has as its target purified HLA DRB1*0401 (human). Description: competition with 125I-labelled peptide for purified HLA.
Experiment [36] deals with purified HLA DRB1*0301 (human). Described as above.
The target of experiment [37] is purified HLA DRB1*1501 (human). The description is as above.
In experiment [38] the target is purified HLA DRB1*0404 (human). Described as above.
The target in experiment [39] is purified HLA DRB1*0701 (human). The description is as above.
Experiment [40] addresses purified HLA DRB1*0101 (human). The experiment is described as above.
The target in experiment [41] is purified HLA DRB1*1101 (human). The description is as above.
In experiment [42] the target is purified HLA DRB1*1302 (human). The experiment is described as above.
Experiment [43] deals with purified HLA DRB1*0405 (human). The experiment is described as above.
Experiment [44] addresses HLA-DR DRB1*1101 (human). The experiment in a line: competition with 125I-labelled peptide for purified HLA-DR.
The target in experiment [45] is HLA-DR DRB1*0901 (human). The experiment is described as above.
Experiment [46] deals with HLA-DR DRB4*0101 (human). The description is as above.
Experiment [47] has as its target HLA-DR DRB5*0101 (human). The experiment is described as above.
Experiment [48] concerns the target HLA-DR DRB1*0404 (human). The experiment is described as above.
The target of experiment [49] is HLA-DR DRB1*1501 (human). The experiment is described as above.
The target in experiment [50] is HLA-DR DRB1*0802 (human). The description is as above.
Experiment [51] concerns the target HLA-DR DRB1*1302 (human). The experiment is described as above.
The target of experiment [52] is HLA-DR DRB1*0405 (human). The experiment is described as above.
Experiment [53] has as its target HLA-DR DRB1*0701 (human). Described as above.
Experiment [54] deals with HLA-DR DRB1*0301 (human). Described as above.
Experiment [55] addresses HLA-DR DRB1*0101 (human). Described as above.
For experiment [56], the target named is HLA-DR DRB1*0401 (human). The experiment is described as above.
The target in experiment [57] is HLA-DR DRB1*1101 (human). Description: competition with 125I-labeled reference peptide, purified HLA.
Experiment [58] addresses HLA-DR DRB4*0101 (human). Described as above.
Experiment [59] has as its target HLA-DR DRB5*0101 (human). Described as above.
For experiment [60], the target named is HLA-DR DRB1*0404 (human). The experiment is described as above.
Experiment [61] deals with HLA-DR DRB1*1501 (human). The description is as above.
Experiment [62] concerns the target HLA-DR DRB1*0802 (human). Described as above.
Experiment [63] addresses HLA-DR DRB1*1302 (human). Described as above.
In experiment [64] the target is HLA-DR DRB1*0405 (human). Described as above.
For experiment [65], the target named is HLA-DR DRB1*0701 (human). Described as above.
Experiment [66] addresses HLA-DR DRB1*0301 (human). Described as above.
Experiment [67] has as its target HLA-DR DRB1*0101 (human). Described as above.
Experiment [68] has as its target HLA-DR DRB1*0401 (human). The description is as above.

Some results are limits rather than exact numbers.

For RREVHIYYLEKANKI (modifications not checked) [Flu.PA.127 peptide …], the IC50 in [1] was 0.063 µM; in [2], more than 10 µM; in experiment [3], 0.0045 µM; in [4], 0.181 µM; in [5] it was 0.023 µM; in experiment [6] it was 0.034 µM. Besides, the half-inhibitory concentration (IC50) was found to be 0.095 µM in experiment [7]; 0.096 µM in experiment [8]; 0.005 µM in experiment [9]; 0.025 µM in experiment [10]; 0.15 µM in experiment [11]; 1.49 µM in experiment [12].

For SLMLQIGNMISIWVSHS (modifications not checked) [Flu.NA.21], the concentration for half-maximal inhibition (IC50) in the experiment with HLA-DR DRB1*1101 (human) [13] was determined as 0.083 µM; in the experiment with HLA-DR DRB1*0901 (human) [14] it was 0.086 µM; with HLA-DR DRB4*0101 (human) [15] it was 0.008 µM; with HLA-DR DRB5*0101 (human) [16], 0.024 µM; with HLA-DR DRB1*0404 (human) [17], 0.003 µM; in the experiment with HLA-DR DRB1*1501 (human) [18], 0.008 µM. The half-maximal inhibitory concentration (IC50) was 0.089 µM with HLA-DR DRB1*0802 (human) [19]; 0.01 µM with HLA-DR DRB1*1302 (human) [20]; 0.066 µM in the experiment with HLA-DR DRB1*0405 (human) [21]; 0.013 µM with HLA-DR DRB1*0701 (human) [22]; 0.441 µM in the experiment with HLA-DR DRB1*0301 (human) [23]; 0.008 µM with HLA-DR DRB1*0101 (human) [24]. Further, in the experiment with HLA-DR DRB1*0401 (human) [25], the IC50 came out at 0.005 µM.

Take YIQMCTELKLSDYEG (modifications not checked) [Flu.NP.43 peptide …]: the IC50 with HLA-DR DRB1*1101 (human) [26] was 5.84 µM; in the experiment with HLA-DR DRB1*0404 (human) [27] it was 1.64 µM; with HLA-DR DRB1*1501 (human) [28] it was 0.594 µM; with HLA-DR DRB1*1302 (human) [29], 15.4 µM; in the experiment with HLA-DR DRB1*0405 (human) [30], 2.69 µM; in the experiment with HLA-DR DRB1*0701 (human) [31] it was 5.37 µM. Moreover, the half-maximal inhibitory concentration (IC50) came to 0.368 µM in the experiment with HLA-DR DRB1*0301 (human) [32]; 0.32 µM with HLA-DR DRB1*0101 (human) [33]; 0.392 µM in the experiment with HLA-DR DRB1*0401 (human) [34]; 0.392 µM in [35]; 0.368 µM in experiment [36]; 0.594 µM in [37]. Besides, the half-maximal inhibitory concentration (IC50) in experiment [38] was 1.64 µM; in [39] it was 5.37 µM; in experiment [40], 0.32 µM; in [41], 5.84 µM; in experiment [42] it was 15.4 µM; in experiment [43], 2.69 µM.

Turning to RREVHIYYLEKANKI (modifications not checked) [Flu.PA.127], the IC50 with HLA-DR DRB1*1101 (human) [44] was found to be 0.096 µM; with HLA-DR DRB1*0901 (human) [45], 0.851 µM; with HLA-DR DRB4*0101 (human) [46], 0.005 µM; with HLA-DR DRB5*0101 (human) [47], 0.025 µM; with HLA-DR DRB1*0404 (human) [48], 0.181 µM; with HLA-DR DRB1*1501 (human) [49], 0.0045 µM. Also, the IC50 in the experiment with HLA-DR DRB1*0802 (human) [50] was 0.095 µM; with HLA-DR DRB1*1302 (human) [51] it was 0.15 µM; with HLA-DR DRB1*0405 (human) [52], 1.49 µM; in the experiment with HLA-DR DRB1*0701 (human) [53], 0.023 µM; in the experiment with HLA-DR DRB1*0301 (human) [54] it was more than 10 µM; in the experiment with HLA-DR DRB1*0101 (human) [55], 0.034 µM. In addition, the IC50 in the experiment with HLA-DR DRB1*0401 (human) [56] was 0.063 µM; with HLA-DR DRB1*1101 (human) [57] it was 0.096 µM; with HLA-DR DRB4*0101 (human) [58] it was 0.005 µM; with HLA-DR DRB5*0101 (human) [59], 0.025 µM; with HLA-DR DRB1*0404 (human) [60] it was 0.181 µM; with HLA-DR DRB1*1501 (human) [61] it was 0.0045 µM. Moreover, the IC50 was 0.095 µM in the experiment with HLA-DR DRB1*0802 (human) [62]; 0.15 µM in the experiment with HLA-DR DRB1*1302 (human) [63]; 1.49 µM with HLA-DR DRB1*0405 (human) [64]; 0.023 µM with HLA-DR DRB1*0701 (human) [65]; more than 10 µM with HLA-DR DRB1*0301 (human) [66]; 0.034 µM with HLA-DR DRB1*0101 (human) [67]. This molecule had an IC50 in the experiment with HLA-DR DRB1*0401 (human) [68] of 0.063 µM.
